Source: IntAct's records for PubMed 23478064

B1: Eukaryotic translation initiation factor 4 gamma 2 (Homo sapiens), P78344-1 (parent)
chain: MESAIAEGGASRFSASSGGGGSRGAPQHYPKTAGNSEFLGKTPGQNAQKWIPARSTRRDDNSAANNSANEKERHDAIFRKVRGILNKLTPEKFDKLCLELLNVGVESKLILKGVILLIVDKALEEPKYSSLYAQLCLRLAEDAPNFDGPAAEGQPGQKQSTTFRRLLISKLQDEFENRTRNVDVYDKRENPLLPEEEEQRAIAKIKMLGNIKFIGELGKLDLIHESILHKCIKTLLEKKKRVQLKDMGEDLECLCQIMRTVGPRLDHERAKSLMDQYFARMCSLMLSKELPARIRFLLQDTVELREHHWVPRKAFLDNGPKTINQIRQDAVKDLGVFIPAPMAQGMRSDFFLEGPFMPPRMKMDRDPLGGLADMFGQMPGSGIGTGPGVIQDRFSPTMGRHRSNQLFNGHGGHIMPPTQSQFGEMGGKFMKSQGLSQLYHNQSQGLLSQLQGQSKDMPPRFSKKGQLNADEISLRPAQSFLMNKNQVPKLQPQITMIPPSAQPPRTQTPPLGQTPQLGLKTNPPLIQEKPAKTSKKPPPSKEELLKLTETVVTEYLNSGNANEAVNGVREMRAPKHFLPEMLSKVIILSLDRSDEDKEKASSLISLLKQEGIATSDNFMQAFLNVLDQCPKLEVDIPLVKSYLAQFAARAIISELVSISELAQPLESGTHFPLFLLCLQQLAKLQDREWLTELFQQSKVNMQKMLPEIDQNKDRMLEILEGKGLSFLFPLLKLEKELLKQIKLDPSPQTIYKWIKDNISPKLHVDKGFVNILMTSFLQYISSEVNPPSDETDSSSAPSKEQLEQEKQLLLSFKPVMQKFLHDHVDLQVSALYALQVHCYNSNFPKGMLLRFFVHFYDMEIIEEEAFLAWKEDITQEFPGKGKALFQVNQWLTWLETAEEEESEEEAD

Variants of: B1
Details: with if4a1_human EIF4A1, P60842
Sequence of if4a1_human EIF4A1, P60842 (P60842 whole entry): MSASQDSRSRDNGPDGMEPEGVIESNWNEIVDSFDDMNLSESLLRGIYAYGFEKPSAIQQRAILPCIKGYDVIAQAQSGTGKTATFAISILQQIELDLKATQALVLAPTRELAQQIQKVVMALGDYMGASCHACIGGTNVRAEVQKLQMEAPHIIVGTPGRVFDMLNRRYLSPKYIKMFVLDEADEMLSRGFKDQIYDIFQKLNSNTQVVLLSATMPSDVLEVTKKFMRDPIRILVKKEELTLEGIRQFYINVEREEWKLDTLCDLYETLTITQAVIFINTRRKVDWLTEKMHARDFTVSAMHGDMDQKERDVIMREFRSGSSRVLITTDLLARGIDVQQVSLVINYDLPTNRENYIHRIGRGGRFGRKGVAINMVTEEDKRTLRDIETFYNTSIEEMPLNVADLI

effect of a mutation on the interaction | Variant
disrupting interaction strength | E125K
disrupting interaction strength | F296A
disrupting interaction strength | N86A
